T1: DKK1 (Dickkopf-1), full-length (Homo sapiens, UniProt O94907 SEQ:32-266)
T1 sequence: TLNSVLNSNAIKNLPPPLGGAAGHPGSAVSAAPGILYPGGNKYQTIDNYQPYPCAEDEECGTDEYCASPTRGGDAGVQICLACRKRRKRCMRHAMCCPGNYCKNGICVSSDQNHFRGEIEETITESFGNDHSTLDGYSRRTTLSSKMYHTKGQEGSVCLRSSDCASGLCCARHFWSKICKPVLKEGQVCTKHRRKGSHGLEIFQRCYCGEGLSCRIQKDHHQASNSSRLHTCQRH

B1: Aptdkk-8 (ssDNA)
DNA: CGTACGGTCGACGCTAGCTGCCACCCCTGTTTTCCACATTTTCCTCGACCGCGGGATCCGAGCTCCACGTG
B2: Aptdkk-17 (ssDNA)
DNA: CGTACGGTCGACGCTAGCTACTTCTCCACGTCTCTTTCCCTGTCCCCTTCGCAGGATCCGAGCTCCACGTG
B3: Aptdkk-12 (ssDNA)
DNA: CGTACGGTCGACGCTAGCTCCCCTCATAATCCGACTTTTTCCCTCCCCCTCCCGGATCCGAGCTCCACGTG
B4: Aptdkk-9 (ssDNA)
DNA: CGTACGGTCGACGCTAGCTACACCCCTTCCTGTTCTATTCTTCCTGCCTTGCGGGATCCGAGCTCCACGTG
B5: Aptdkk-18 (ssDNA)
DNA: CGTACGGTCGACGCTAGCTCCACCCAATTCTCTTCCCGTCTTTCCTGCACATGGGATCCGAGCTCCACGTG
B6: Aptdkk-13 (ssDNA)
DNA: CGTACGGTCGACGCTAGCTGGTGTGGGGGTGGGTGGTGGGTTGTATCGTTTGAGGATCCGAGCTCCACGTG
B7: Aptdkk-19 (ssDNA)
DNA: CGTACGGTCGACGCTAGCATAGGTTGGGTAGGTTGGTTGCTTTTTTTGTCGCGGGATCCGAGCTCCACGTG
B8: Aptdkk-1 (ssDNA)
DNA: CGTACGGTCGACGCTAGCTGTGGTTATGGGGTTGGTGGGTGGGTTCTTACGGAGGATCCGAGCTCCACGTG
B9: Aptdkk-6 (ssDNA)
DNA: CGTACGGTCGACGCTAGCCCGGTTGCAATGGTTGGGGTGGTTGGTTTTGCATGGGATCCGAGCTCCACGTG
B10: Aptdkk-15 (ssDNA)
DNA: CGTACGGTCGACGCTAGCACGTTCAGATACCTTTTTTCCCCTTTGTTCTGCCGGGATCCGAGCTCCACGTG
B11: Aptdkk-4 (ssDNA)
DNA: CGTACGGTCGACGCTAGCTGCACGCTTTTCCCTCCTTTTCTCGTCTGACCGCGGGATCCGAGCTCCACGTG
B12: Aptdkk-10 (ssDNA)
DNA: CGTACGGTCGACGCTAGCACTCTCCACGTTTTTCCACCTCCTTCCTCCTTTGCGGATCCGAGCTCCACGTG
B13: Aptdkk-7 (ssDNA)
DNA: CGTACGGTCGACGCTAGCAGCCCCCTTCCTTTCTTCCTCGACCTCCCTCCGCAGGATCCGAGCTCCACGTG
B14: Aptdkk-11 (ssDNA)
DNA: CGTACGGTCGACGCTAGCCATCCAGCTCCCTTTATTCCCTCTGTACCCTCCTGGGATCCGAGCTCCACGTG
B15: Aptdkk-16 (ssDNA)
DNA: CGTACGGTCGACGCTAGCTACACGCCATCGGTGCCCTTTTCTCTTCTTGTCTGGGATCCGAGCTCCACGTG
B16: Aptdkk-14 (ssDNA)
DNA: CGTACGGTCGACGCTAGCCTGTGCAGTTGGTTGGTTATGGTTGGGACTGTCAGGATCCGAGCTCCACGTG
B17: Aptdkk-2 (ssDNA)
DNA: CGTACGGTCGACGCTAGCTGGTGTTGGGGTGGGTTGGTGGGTATTTTGGCGGTGGATCCGAGCTCCACGTG

biological target: T1, DKK1 (Dickkopf-1), full-length; assay: ELONA; 1 nM: no or slight difference from aptdkk5; details: tags: His6; label: biotin
Description: (§1) Enzyme linked oligonucleotide assay (ELONA): 160 ng DKK1 per well and negative target were coated in a 96-well microtiter plate by incubating at 4° C. overnight through hydrophobic interaction. Non-binding sites in wells were blocked with bull serum albumin (BSA) at room temperature for 1 hour, and then washed with DNA-binding buffer 4 times for 5 minutes each. The biotinylated aptamer candidates/RS with an appropriate concentration were added to each well and incubated at room temperature for 45 minutes with continuous gentle shaking. After binding, the plate was washed with washing buffer 4 times for 5 minutes each to remove non-specific and weakly binding sequences. 100 μl streptavidin-horseradish peroxidase (HRP) (1:10000 dilute into PBST+0.1% BSA) was added to each well, and incubated for 30 minutes, and washed for 4 times with the binding buffer. 50 μl 3,3′,5,5′-tetramethylbenzidine (TMB) as a HRP substrate was added to each well and incubated for 20 minutes. 50 μl 2M H₂SO₄ was added to terminate the reaction. The absorbance at 450 nm was measured with a microplate reader (Molecular Device i3x). Data was analyzed with Origin software. A binding curve was generated and KD was calculated with a non-linear curve fitting model logistic.
The specificity of 100 nM/i nM of each aptamer/RS against DKK-1 was determined for 24 truncated sequences of aptdkk5 and original aptdkk5 (Table 6) by ELONA and the absorbance at 450 nm was detected. When the concentration was 100 nM, there was no significant difference or slight difference in the absorbance between apt5-1-38, apt5-1-35, apt5-1-62, or apt5-1-59 and the original aptdkk5 (FIG. 8a). When the concentration was 1 nM, there was no significant difference or slight difference in the absorbance between apt5-1-50, apt5-1-47, apt5-1-44, apt5-1-41, apt5-1-38, apt5-1-35, apt5-1-65, apt5-1-62, apt5-1-59, or apt5-1-53 and the original aptdkk5 (FIG. 8b). After the specificity and length of these aptamers were considered, apt5-1-44, apt5-1-41, apt5-1-38, and apt5-1-35 were selected to determine the binding affinity against DKK1.

Does CGTACGGTCGACGCTAGCTGGTGGTTGGGGTGGGTGGTGGTTGTTCG (ssDNA) [Apt5-1-47] bind?
Result: binds

Does CGTACGGTCGACGCTAGCTGGTGGTTGGGGTGGGTGGTGGTTGTTCGTGG (ssDNA) [Apt5-1-50] bind?
Result: binds

biological target: T1, DKK1 (Dickkopf-1), full-length; assay: ELONA; room temperature; details: tags: His6; label: biotin
Description: as §1
Aptamer candidates with significant specificity and Candidate 3 as a negative control were used to determine the binding affinity against DKK1. Candidates 1, 2, 4, and 14 had concentrations of (0, 62.5 nM, 125 nM, 250 nM, 500 nM, 1000 nM, 2000 nM, and 4000 nM), Candidates 7, 10, 15, and 16 had concentrations of (0, 23.44 nM, 46.86 nM, 93.75 nM, 187.5 nM, 375 nM, 750 nM, and 1500 nM), and other candidates had concentrations of (0, 0.18 nM, 0.74 nM, 2.96 nM, 11.84 nM, 47.35 nM, 189.39 nM, and 757.58 nM). […] Six candidates (aptdkk-5, 13, 20, 19, 6, and 1) were rich in G. The other five sequences (aptdkk-9, 18, 12, 17, and 8) were not rich in G.

How did the Kd turn out when B1 was run?
The Kd was 104 nM.

Which Kd does the source give for B2 here?
Its Kd is 50.4 nM.

For B3, which Kd is on record?
Its Kd is 38.2 nM.

Which Kd does the source give for B4 here?
Its Kd is 4.2 nM.

With B5 as the binder, how does the Kd read?
The Kd was 8.2 nM.

same assay, conditions: tags: His6; label: biotin; G-rich, predicted G4

B6 was tested. Which Kd did it give?
The Kd was 1.1 nM.

For B7, which Kd is on record?
Its Kd is 9.7 nM.

How did the Kd turn out when B8 was run?
Its Kd is 344 nM.

With B9 as the binder, how does the Kd read?
Its Kd is 29.4 nM.

biological target: T1, DKK1 (Dickkopf-1), full-length; assay: ELONA; specificity High at 1 uM; Kd not given; details: tags: His6; label: biotin
Description: as §1
The specificity of 1 μM of each adapter/RS against DKK-1 was determined for 20 potential sequences with the highest occurrence rate (Table 4) by ELONA and the absorbance at 450 nm was detected.

Does B10 bind?
Result: binds

Does B11 bind?
Result: binds

Does B12 bind?
Result: binds

Does B13 bind?
Result: binds

Does B14 bind?
Result: binds

Does B15 bind?
Result: binds

same assay, conditions: tags: His6; label: biotin; G-rich, predicted G4

Does B16 bind?
Result: binds

Does B17 bind?
Result: binds

biological target: T1, DKK1 (Dickkopf-1), full-length; assay: BLI; details: tags: His6
Description: The specificity against DKK-1 was determined with 1 μM of each aptamer/RS for 19 potential sequences with the highest occurrence rate in the 30th round by ELONA. […] Next, the binding affinity against DKK1 was determined for candidate aptamers by BLL. DKK1 protein was applied at gradient concentrations of 0 nM, 3.125 nM, 6.25 nM, 12.5 nM, 25 nM, 50 nM, 100 nM, and 200 nM.

For CTGTTCTAACGTGGTTGACCCCCCTTTGCTTTGAC (ssDNA) [D30-9], which Kd is on record?
Its Kd is 2.42 nM.

How did the Kd turn out when CTTCTTGTCCCTCGATGTGTTCAGTGTTTGTGTGT (ssDNA) [D30-3] was run?
The Kd was 2.64 nM.

How did the Kd turn out when TCCTCTTCCTTTGGCTAGGTTGGTTAGGTTGGTGC (ssDNA) [D30-10] was run?
Its Kd is 1.97 nM.

CAGTCTTAGTGCTCATGTGTTCAGTGTTTGTGTGT (ssDNA) [D30-17] was tested. Which Kd did it give?
The Kd was 20.1 nM.

TGCTGAACTTTACGTGATTCTAGTCGCTGACCGCG (ssDNA) [D30-4] was tested. Which Kd did it give?
The Kd was 23 nM.

Which Kd does the source give for ATGCCCCTCCTCTGTTGAACTGTTTACCCCTTTGA (ssDNA) [D30-14] here?
The Kd was 2.54 nM.

TACCTTCTGCTCGATGTGTTCAGTGTGTTGTGTGT (ssDNA) [D30-19] was tested. Which Kd did it give?
The Kd was 20.1 nM.

For CATTGTCTCAGCGCATGTGTTCAGTTCTTGTGTGT (ssDNA) [D30-2], which Kd is on record?
Its Kd is 2.89 nM.

TGCATCTTCCTTCTTCGATTCTATGCTCGGCCGCG (ssDNA) [D30-8] was tested. Which Kd did it give?
Its Kd is 3.19 nM.

ATGTCCATTTGCGAGTAGGTGTTTGAGTGAGGTGA (ssDNA) [D30-1] was tested. Which Kd did it give?
Its Kd is 5.34 nM.

With TATGGTTTCCCTACATGTGTTCAGTGTTTGTGTGT (ssDNA) [D30-13] as the binder, how does the Kd read?
The Kd was 1.67 nM.

How did the Kd turn out when TCGTGCTTGATTCCATGCTTGGCCGCCTTCTCGTG (ssDNA) [D30-12] was run?
Its Kd is 5.99 nM.

With TCTGCTTTCACGTACTAGGTTGGTTAGGTTGGTGT (ssDNA) [D30-18] as the binder, how does the Kd read?
Its Kd is 20.8 nM.

TGTAGATAGAGGGGTTGGTGTGGTTGGCGCTATCC (ssDNA) [D30-7] was tested. Which Kd did it give?
The Kd was 5.5 nM.

AATTTCGATAGTCCATGTGTTCAGTGCCTGTGTGT (ssDNA) [D30-15] was tested. Which Kd did it give?
The Kd was 2.92 nM.

For ATGTAAATCGATTCCTCTGGCCGCATCGCGCTTTA (ssDNA) [D30-16], which Kd is on record?
Its Kd is 1.9 nM.

Reference: patent US20240401063, “Aptamer for DKK1 and Use Thereof” (APTACURE THERAPEUTICS LIMITED, published 2024)
